Test results as given in US20150231232.

Molecular target: human IL-8 (UniProt P10145)
Sequence (P10145 28-99): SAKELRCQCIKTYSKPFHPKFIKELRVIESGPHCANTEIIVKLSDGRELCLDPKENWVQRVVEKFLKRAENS

Substance: SpyCEP expressed in the lumen of E. coli OMVs (OMVs containing SpyCEP)
- hydrolysis of IL-8 (18% SDS-PAGE with silver staining): IL-8 was almost completely cleaved after 2 hours incubation with 30 µg OMVs containing SpyCEP
